The values that follow come from US9952227B2, “Method for detecting bilirubin” (Research Foundation of the City University of New York, priority 2015, dated 2018).

One data set relates to mammalian cells. As to the kind of experiment: Fluorescence of expressed protein in mammalian cells upon addition of exogenous bilirubin. Type of data set: cell-based. An excerpt:
(§1) Hayashi and Toda reported that Anguilla japonica (heavily farmed in Japanese aquaculture and a historical staple of Japanese cuisine) was weakly green fluorescent. They purified a fluorescent protein from A. japonica muscle tissue and isolated and sequenced several peptide fragments. […] Then in 2013, Kumagai et al., published a full characterization of the fluorescent protein from A. japonica. […] The Kaupichthys hyoproroides and Kaupichthys n. sp. data was re-examined and found a single transcript in each of the two species' transcriptomes that encoded an FABP including the Gly-Pro-Pro insertion. […] These proteins, termed Chlopsid FP I and Chlopsid FP II, are orthologs of UnaG (FIG. 1). FIG. 1 depicts sequence alignment of fluorescent FABPs from eels with a non-fluorscent FABP from Kaupichthys hyoproroides (Chlopsid NFP) and human brain FABP-7. Areas of homology are identified with solid lines boxes. The GPP sequence motif is identified with a dotted lined box.

The next data set concerns HEK293 cells. In words: Expression of Chlopsid FP I in HEK293 cells, single and two-photon imaging. The format is cell-based. Here is the method: Expression in Mammalian Cells: Chlopsid FP I was expressed in mammalian cells (HEK293) without the addition of bilirubin. […] The two-photon excitation was fairly flat from 700-1000 nm with a peak at 860 nm and an unusual dip at 840 nm.
Expression of Chlopsid FP I in HEK293 Cells: A pCS2+vector was used for cloning of Chlopsid FP I for expression in HEK293 cells (ATCC, USA) using Kpn-Sphl cloning sites. Plasmids were prepared by Genscript USA, Inc. The expression was driven in HEK293 cells (ATCC, USA) by CMV promotor. The HEK293 cell line was maintained in Dulbecco's Modified Eagle Medium (High Glucose) (DMEM) (Invitrogen, USA), supplemented with 10% fetal bovine serum (FBS) (Sigma-Aldrich, USA), in a 37° C. incubator with 5% CO2. Transient transfection was performed using 2 μg of DNA per 35 mm dish and 5 μg of Lipofectamine 2000 (Invitrogen, N.Y.). Cells were imaged on a custom-made 2-photon microscope using a Chameleon Ti-Sapphire laser (Coherent Inc, CA) and water immersion 20×/0.95 N.A. objective (Olympus, Japan). Images were taken using 850 nm laser light with power of 15 mW at the objective.

A short description of data set [1]: Fluorescence excitation and emission spectra. The format is physicochemical. The method, then:
In Chlopsid FP I and Chlopsid FP II this amino acid is a histidine. This difference in amino acid sequence can potentially explain the fluorescence shift, due to an increase in the π conjugation of the system.
Fluorescence Spectroscopy: Fluorescence excitation and emission spectra were recorded using a F-7000 Hitachi Fluorescence Spectrometer.

A further data set relates to E. coli. As to the kind of experiment: Fluorescence of expressed protein in E. coli upon addition of exogenous bilirubin. The format is cell-based.
Description: as §1
Protein Expression and Purification. Candidate ORFs were selected from eel transcriptome data containing an unusual sequence motif (Gly-Pro-Pro) on a loop between two beta sheets in the FABP sequence. […] Protein concentration was determined by A280 measurements, using calculated extinction coefficients of 15,300 M^−1 cm^−1 for Chlopsid FP I, and 16,600 M^−1 cm^−1 for Chlopsid FP II. […]

Data set [2] in a line: Fluorescence quantum yield. Type of data set: physicochemical. The method, then:
The fluorescence quantum yield of Chlopsid FP I was determined to be 0.47. […] These values are close to the reported quantum yield for UnaG of 0.51 (Table 1). Two prolines in the Gly-Pro-Pro sequence motif were mutated to glycine.

For data set [3] the following is noted: reported value for reference fluorescent protein; cited from earlier work.
The conditions of data set [4]: reference fluorescent protein; cited from earlier work.

Where “and” joins values, the source holds several entries; their conditions need not be identical. Equal values may be shown once. Read-outs that look alike come from different tables or passages of the source.

B1: Chlopsid FP I: bilirubin-inducible fluorescent fatty acid-binding protein from Kaupichthys hyoproroides, SEQ ID NO: 1 (protein)
chain: MFEDFLGTWKCIDSQNFGAYLAAIGAPPVLSERADATRPTVHFNRDGDKLSLKVEHGPPPLKDVLLSFKLGEEFDEHPTDGRKCKTLVTFEGDKLLYLQKWDGKETVVVREIRDGNVVATLSHEGVVALRVYKKVAGPTALE
modifications: Kaupichthys hyoproroides
Take B1: the “Fluorescence upon addition of exogenous bilirubin” value (“Fluorescence upon addition” for short) in the data set on mammalian cells was “strong green fluorescence”. The Two-photon excitation dip in the data set with HEK293 cells (HEK293) came to 840 nm. Moreover, in the data set on HEK293 cells (HEK293, excitation fairly flat from 700-1000 nm), the Two-photon excitation peak amounted to 860 nm. Further, the “Fluorescence of expressing cells” value in the data set on HEK293 cells (HEK293, without the addition of bilirubin, single and two-photon imaging) is given as “bright fluorescence”. Also, in data set [1], the “Ex/Em maxima: emission maximum” value is 527 nm and 524 nm; the “Ex/Em maxima: excitation maximum” value is 498 nm and 490 nm. Moreover, the “Fluorescence upon addition” value with E. coli is listed as “strong green fluorescence”. Moreover, the Fluorescence quantum yield in data set [2] stood at 0.47.

B2: UnaG: bilirubin inducible fluorescent protein from Anguilla japonica, novel member of the FABP family (protein, UniProt P0DM59 1-139, looked up)
Bilirubin-inducible …: MVEKFVGTWKIADSHNFGEYLKAIGAPKELSDGGDATTPTLYISQKDGDKMTVKIENGPPTFLDTQVKFKLGEEFDEFPSDRRKGVKSVVNLVGEKLVYVQKWDGKETTYVREIKDGKLVVTLTMGDVVAVRSYRRATE
Take B2: the Fluorescence quantum yield in data set [3] is 0.51. For the same molecule, in data set [4], the “Ex/Em maxima: emission maximum” value was 523 nm and 530 nm; the “Ex/Em maxima: excitation maximum” value was 489 nm and 498 nm.

B3: Chlopsid FP II: bilirubin-inducible fluorescent fatty acid-binding protein from Kaupichthys n. sp., SEQ ID NO: 2 (protein)
chain: MFEDFLGTWECIDSQNFGAYLAAVGAPPVLSDRADATRPTVYFNRDGDKLSLKVEHGPPPLKDVILSFKLGEEFDEHPTDGRKCKTLVTFEGDKLLYLQKWDGKETVVVREIRDGNVVATLSHEGVVALRVYKKVAGPTA
modifications: Kaupichthys hyoproroides
In the case of B3, the “Fluorescence upon addition” value in the data set on mammalian cells and in the data set on E. coli was “strong green fluorescence” throughout. For the same molecule, the “Ex/Em maxima: emission maximum” value in data set [1] is 527 nm and 524 nm. In data set [1], the “Ex/Em maxima: excitation maximum” value is 498 nm and 490 nm. In data set [2], this molecule had a Fluorescence quantum yield of 0.37.
